In PMC10286459, “The development of an anti-cancer peptide M1-21 targeting transcription factor FOXM1” (Cell & Bioscience, 2023):

Assays:
[1] = molecular target: endogenous FOXM1 protein (human (endogenous in 293T and MDA-MB-231)) (UniProt Q08050)
GFP-FOXM1 (human) = GFP-FOXM1 (human) (UniProt Q08050); experiment: MST; GFP-fused FOXM1 protein as the fluorescent partner, synthesized peptide varied from 0.030 to 1000 µM; PBST (1×PBS 0.01 M, 0.05% Tween-20); 25 °C; Monolith NT.115, LED power 60%, medium MST power
GFP-FOXM1 (human), sequence (Q08050 other isoform, or with tags, fused parts or gaps): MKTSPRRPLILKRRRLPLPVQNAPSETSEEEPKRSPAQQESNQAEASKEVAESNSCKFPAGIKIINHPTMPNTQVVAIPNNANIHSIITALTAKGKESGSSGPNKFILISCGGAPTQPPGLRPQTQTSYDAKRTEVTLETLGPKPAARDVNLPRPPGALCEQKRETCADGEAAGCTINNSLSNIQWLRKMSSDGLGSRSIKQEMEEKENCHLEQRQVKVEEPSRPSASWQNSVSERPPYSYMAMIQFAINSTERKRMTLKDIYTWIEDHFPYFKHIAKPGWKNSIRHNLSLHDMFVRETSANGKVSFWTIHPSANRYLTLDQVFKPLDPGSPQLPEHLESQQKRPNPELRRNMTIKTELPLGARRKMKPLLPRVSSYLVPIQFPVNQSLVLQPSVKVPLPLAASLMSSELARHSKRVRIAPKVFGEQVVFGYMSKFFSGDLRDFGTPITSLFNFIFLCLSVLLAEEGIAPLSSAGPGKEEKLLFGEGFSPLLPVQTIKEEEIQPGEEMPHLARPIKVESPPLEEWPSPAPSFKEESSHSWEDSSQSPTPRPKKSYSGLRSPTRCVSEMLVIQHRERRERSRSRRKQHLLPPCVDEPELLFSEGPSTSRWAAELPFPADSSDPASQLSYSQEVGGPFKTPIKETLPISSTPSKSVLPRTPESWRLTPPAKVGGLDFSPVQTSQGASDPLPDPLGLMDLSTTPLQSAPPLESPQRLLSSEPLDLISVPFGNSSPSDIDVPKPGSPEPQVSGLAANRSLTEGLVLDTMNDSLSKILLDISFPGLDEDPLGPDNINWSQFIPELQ

[2] = molecular target: GFP-FOXM1(688-748) (human); experiment: as above
[3] = molecular target: endogenous FOXM1 protein (human (endogenous in 293T and MDA-MB-231)) (UniProt Q08050); remark: listed apart in the source

endogenous FOXM1 protein (human (endogenous in 293T and MDA-MB-231)), sequence (Q08050 whole entry, the tested form may be a part): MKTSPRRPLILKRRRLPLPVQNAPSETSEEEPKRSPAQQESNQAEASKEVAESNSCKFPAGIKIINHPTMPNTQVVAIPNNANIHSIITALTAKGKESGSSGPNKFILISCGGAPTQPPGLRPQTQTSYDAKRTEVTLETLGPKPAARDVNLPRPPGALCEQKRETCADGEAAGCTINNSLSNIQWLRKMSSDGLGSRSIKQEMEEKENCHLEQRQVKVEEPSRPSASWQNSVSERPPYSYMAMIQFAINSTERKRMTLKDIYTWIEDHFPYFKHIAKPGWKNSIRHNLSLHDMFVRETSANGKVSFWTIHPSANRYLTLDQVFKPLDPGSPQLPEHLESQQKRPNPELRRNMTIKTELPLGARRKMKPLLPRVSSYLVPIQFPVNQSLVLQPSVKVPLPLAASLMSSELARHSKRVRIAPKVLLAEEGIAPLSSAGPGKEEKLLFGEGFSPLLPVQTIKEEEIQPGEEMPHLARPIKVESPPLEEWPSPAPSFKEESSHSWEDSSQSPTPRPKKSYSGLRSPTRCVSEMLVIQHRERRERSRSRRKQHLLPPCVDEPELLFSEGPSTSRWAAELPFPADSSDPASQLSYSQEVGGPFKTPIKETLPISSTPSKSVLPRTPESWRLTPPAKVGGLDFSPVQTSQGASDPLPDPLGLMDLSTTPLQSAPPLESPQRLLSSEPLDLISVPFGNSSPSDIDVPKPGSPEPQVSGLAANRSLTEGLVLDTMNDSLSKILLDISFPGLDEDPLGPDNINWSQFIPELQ

“TAT-106-126 (from UniProt Q08050 106-126) (peptide)” gave an IC50 of cell viability, MDA-MB-231 cells, 48 h (trypan blue) [1] of 53.4 µM, a Kd (GFP-FOXM1 (human)) of 7.1 µM and a Kd [2] of 3.9 µM. The IC50 of cell viability, MDA-MB-231 cells, 48 h (trypan blue; Fig. 2C) [3] was 54.3 µM.
Substance “TAT-96-116 (from UniProt Q08050 96-116) (peptide)” has a Kd [2] of 2.8 µM.
Work on “TAT-101-121 (from UniProt Q08050 101-121) (peptide)” yielded a Kd [2] of 5.5 µM.
